Results published in patent publication US20070031415A1 (published 2007).

T1: Rap1V12 (Rap1-activated mutant) (human, UniProt P62834 1-184, limits assumed)
T1 construct: also called active Rap1V12
T1 chain: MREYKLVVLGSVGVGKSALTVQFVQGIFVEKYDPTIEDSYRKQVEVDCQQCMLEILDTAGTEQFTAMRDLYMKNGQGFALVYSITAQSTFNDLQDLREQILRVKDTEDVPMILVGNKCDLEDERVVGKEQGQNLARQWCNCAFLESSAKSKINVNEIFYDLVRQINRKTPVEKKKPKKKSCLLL

T2: GTP-Rap1 (human, UniProt P62833 1-184 (bovine entry), limits assumed)
T2 sequence: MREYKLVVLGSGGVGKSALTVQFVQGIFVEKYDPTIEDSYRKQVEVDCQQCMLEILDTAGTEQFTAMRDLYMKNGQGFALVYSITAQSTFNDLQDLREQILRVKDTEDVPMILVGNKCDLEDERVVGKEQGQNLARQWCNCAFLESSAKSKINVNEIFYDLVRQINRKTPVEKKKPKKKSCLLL

B1: human p30 (RAPL), wild type (other)
chain: MTVDSSMSSGYCSLDEELEDCFFTAKTTFFRNAQSKHLSKNVCKPVEETQRPPTLQEIKQKIDSYNTREKNCLGMKLSEDGTYTGFIKVHLKLRRPVTVPAGIRPQSIYDAIKEVNLAATTDKRTSFYLPLDAIKQLHISSTTTVSEVIQGLLKKFMVVDNPQKFALFKRIHKDGQVLFQKLSIADRPLYLRLLAGPDTEVLSFVLKENETGEVEWDAFSIPELQNFLTILEKEEQDKIQQVQKKYDKFRQKLEEALRESQGKPG
notes: also called hp30; wild type p30

How the values were obtained:
[1] = biological target: B1; experiment: association of Rap1V12 point mutants with p30, assay not detailed
[2] = biological target: Rap1 (of the BAF cells, in chemokine-stimulated migration); experiment: cell-based or functional assay
[3] = biological target: T1, Rap1V12 (Rap1-activated mutant); experiment: yeast two-hybrid screen, Rap1V12 as bait
Text: To identify a molecule that associates with Rap1, the human leukocyte cDNA library was screened by a yeast two-hybrid method using a Rap1-activated mutant Rap1V12 as bait. As a result, a molecule that encodes a protein of a molecular weight of 30,000 having a Ras/Rap binding domain (RBD) was isolated and termed as p30 (FIG. 1). […] It was found from an analysis of the human genome database that p30 is an alternative splicing product of Norel. Mouse p30 cDNA was also isolated by a RT-PCR method.

GTP-Rap1 = biological target: T2, GTP-Rap1; experiment: binding to GTP-Rap1, assay not detailed

| binding result [1] | Binder | further results |
| --- | --- | --- |
| binds | Rap1V12 E37G (enzyme, Point mutation in the effector region of the active Rap1V12) MREYKLVVLGSVGVGKSALTVQFVQGIFVEKYDPTIGDSYRKQVEVDCQQCMLEILDTAGTEQFTAMRDLYMKNGQGFALVYSITAQSTFNDLQDLREQILRVKDTEDVPMILVGNKCDLEDERVVGKEQGQNLARQWCNCAFLESSAKSKINVNEIFYDLVRQINRKTPVEKKKPKKKSCLLL | – |
| no binding | Rap1V12 T35E (enzyme, Point mutation in the effector region of the active Rap1V12) MREYKLVVLGSVGVGKSALTVQFVQGIFVEKYDPEIEDSYRKQVEVDCQQCMLEILDTAGTEQFTAMRDLYMKNGQGFALVYSITAQSTFNDLQDLREQILRVKDTEDVPMILVGNKCDLEDERVVGKEQGQNLARQWCNCAFLESSAKSKINVNEIFYDLVRQINRKTPVEKKKPKKKSCLLL | – |
| no binding | Rap1V12 Y40C (enzyme, Point mutation in the effector region of the active Rap1V12) MREYKLVVLGSVGVGKSALTVQFVQGIFVEKYDPTIEDSCRKQVEVDCQQCMLEILDTAGTEQFTAMRDLYMKNGQGFALVYSITAQSTFNDLQDLREQILRVKDTEDVPMILVGNKCDLEDERVVGKEQGQNLARQWCNCAFLESSAKSKINVNEIFYDLVRQINRKTPVEKKKPKKKSCLLL | – |
| no binding | Rap1V12 D38E (enzyme, Point mutation in the effector region of the active Rap1V12) MREYKLVVLGSVGVGKSALTVQFVQGIFVEKYDPTIEESYRKQVEVDCQQCMLEILDTAGTEQFTAMRDLYMKNGQGFALVYSITAQSTFNDLQDLREQILRVKDTEDVPMILVGNKCDLEDERVVGKEQGQNLARQWCNCAFLESSAKSKINVNEIFYDLVRQINRKTPVEKKKPKKKSCLLL | – |
| – | B1 | cell migration on ICAM-1 in the presence of SDF-1 (CXCL12) (20 nM) [2]: ~2 fold; binding result [3]: binds |
| – | p30RBDm (RBD-domain mutant of p30) (other) MTVDSSMSSGYCSLDEELEDCFFTAKTTFFRNAQSKHLSKNVCKPVEETQRPPTLQEIKQKIDSYNTREKNCLGMKLSEDGTYTGFIKVHLKLRRPVTVPAGIRPQSIYDAIKEVNLAATTDAATSFYLPLDAIAQLHISSTTTVSEVIQGLLAAFMVVAAPQKFALFKRIHKDGQVLFQKLSIADRPLYLRLLAGPDTEVLSFVLKENETGEVEWDAFSIPELQNFLTILEKEEQDKIQQVQKKYDKFRQKLEEALRESQGKPG | binding result (GTP-Rap1): no binding |
